Assay results reported in article PMC3392545.

Target: human STING C-terminal domain (CTD) containing residues 155 to 341 (human) (UniProt Q86WV6)
Experiment: SEC

human STING C-terminal domain (CTD) containing residues 155 to 341 (from UniProt Q86WV6 155-341) (domain or fragment)
stoichiometry N: 2
